Experimental data reported in patent publication EP4554620A1 (dated 2025).
Substitutions are numbered along the chain they refer to.

Tests used:
[1] = biological target: T1, Human TIGIT residues 23-128 ILE68A mutant (human, UniProt Q495A1 23-128); assay: SPR, TIGIT alanine mutants
T1 construct: not shown: C-terminal HIS tag
T1 chain: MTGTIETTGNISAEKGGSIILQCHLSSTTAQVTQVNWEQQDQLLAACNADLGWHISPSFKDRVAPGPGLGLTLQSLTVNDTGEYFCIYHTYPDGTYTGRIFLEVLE

[2] = biological target: T2, Human TIGIT residues 23-128 LEU65A mutant (human, UniProt Q495A1 23-128); assay: SPR, TIGIT alanine mutants
T2 construct: not shown: C-terminal HIS tag
T2 chain: T1 chain with L43A, A46I

B1: Tiragolumab (antibody, V domains shown)
VH: EVQLQQSGPGLVKPSQTLSLTCAISGDSVSSNSAAWNWIRQSPSRGLEWLGKTYYRFKWYSDYAVSVKGRITINPDTSKNQFSLQLNSVTPEDTAVFYCTRESTTYDLLAGPFDYWGQGTLVTVSS
VL: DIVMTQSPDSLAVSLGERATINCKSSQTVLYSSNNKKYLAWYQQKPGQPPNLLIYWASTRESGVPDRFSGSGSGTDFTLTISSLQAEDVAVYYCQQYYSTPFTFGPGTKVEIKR
[1]
  fold lower binding affinity against WT TIGIT: ~40 fold
[2]
  fold lower binding affinity against WT TIGIT: ~25 fold
